# Reference: patent US20230135471A1, “UBIQUITIN VARIANTS WITH IMPROVED AFFINITY FOR 53BP1” (Integrated DNA Technologies, Inc., priority 2021, published 2023)
# Target: 53BP1 fragment (a.a. 1221-1718) fused to an adenylate cyclase fragment (two-hybrid) (UniProt Q12888)
# Assay: cell-based or functional assay
Substance,Experiment 1 Average Enrichment [log2],Experiment 1 Rep 1 Enrichment [log2],Experiment 1 Rep 2 Enrichment [log2],Experiment 2 Average Enrichment [log2],Experiment 2 Rep 1 Enrichment [log2],Experiment 2 Rep 2 Enrichment [log2]
i53 + E18H two-hybrid fusion (designed binder),1.17,0.39,1.96,0.07,0.24,-0.11
i53 + N25F two-hybrid fusion (designed binder),0.38,0.42,0.34,-0.04,0.12,-0.2
i53 + D39E two-hybrid fusion (designed binder),0.36,0.29,0.44,-0.18,-0.14,-0.23
i53 + Q41Y two-hybrid fusion (designed binder),0.68,0.73,0.64,0.47,0.4,0.53
i53 + T12Y two-hybrid fusion (designed binder),0.25,0.14,0.36,0.35,0.52,0.17
i53 + S49A two-hybrid fusion (designed binder),0.5,0.62,0.39,0.41,0.76,0.06
i53 + P38Y two-hybrid fusion (designed binder),0.74,1.79,-0.3,0.31,0.66,-0.03
i53 + R74K two-hybrid fusion (designed binder),0.12,0.04,0.21,0.13,0.1,0.17
i53 + E18Q two-hybrid fusion (designed binder),0.72,0.61,0.83,0.03,0.02,0.05
i53 + V17C two-hybrid fusion (designed binder),-1.08,-2.27,0.12,0.19,0.6,-0.23
i53 + M1W two-hybrid fusion (designed binder),1.83,1.95,1.71,0.96,0.99,0.92
i53 + P38Q two-hybrid fusion (designed binder),-0.25,0.85,-1.35,0.5,1.18,-0.17
i53 + K33E two-hybrid fusion (designed binder),2.71,2.38,3.03,1.27,1.48,1.05
i53 + K29H two-hybrid fusion (designed binder),0.17,0.02,0.32,-2.73,-3.26,-2.2
i53 + E16Y two-hybrid fusion (designed binder),0.35,0.23,0.47,-0.22,-0.32,-0.11
i53 + A46G two-hybrid fusion (designed binder),0.6,0.48,0.72,-0.17,1.37,-1.71
i53 + S65E two-hybrid fusion (designed binder),1.54,1.29,1.79,0.8,0.74,0.85
i53 + R54T two-hybrid fusion (designed binder),0.66,0.62,0.71,0.7,0.76,0.64
